{
  "source": "paper doi:10.1101/2025.02.07.637115",
  "about": "(bioRxiv, 2025)",
  "molecules": {"B1": {"name": "BMP6, mammalian expressed (glycosylated), recombinant human (ligand)", "chain": "SASSRRRQQSRNRSTQSQDVARVSSASDYNSSELKTACRKHELYVSFQDLGWQDWIIAPKGYAANYCDGECSFPLNAHMNATNHAIVQTLVHLMNPEYVPKPCCAPTKLNAISVLYFDDNSNVILKKYRNMVVRACGCH", "modifications": "N-linked glycosylation at Asn454 (prehelix loop)"}, "B2": {"name": "ALK3 extracellular domain (ALK3 arm of ALK3-ActRIIB in the cryoEM structure) (domain or fragment)", "chain": "QNLDSMLHGTGMKSDSDQKKSENGVTLAPEDTLPFLKCYCSGHCPDDAINNTCITNGHCFAIIEEDDQGETTLASGCMKYEGSDFQCKDSPKAQLRRTIECCRTNLCNQYLQPTLPPVVIGPFFDGSIR"}, "B3": {"name": "ALK3-Fc (homodimeric Fc-fusion of ALK3-ECD) (Fc fusion)", "chain": "B2 chain"}, "B4": {"name": "ActRIIB2-Fc (trap containing two ActRIIB ECDs) (Fc fusion)", "chain": "SGRGEAETRECIYYNANWELERTNQSGLERCEGEQDKRLHCYASWRNSSGTIELVKKGCWLDDFNCYDRQECVATEENPQVYFCCCEGNFCNERFTHLPEAGGPEVTYEPPPTAP"}, "B5": {"name": "deglycosylated BMP6 (ligand)", "chain": "B1 chain", "modifications": "deglycosylated with PNGase F"}},
  "key": {"[1]": {"target": "ActRIIB1-Fc (trap with a single ActRIIB ECD) (human)", "assay": "SPR"}, "[2]": {"target": "ALK3-ActRIIB-Fc heterodimeric trap (human, UniProt P36894;Q13705)", "assay": "SPR"}, "[3]": {"target": "ALK2-ActRIIB-Fc heterodimeric trap (human, UniProt Q04771;Q13705)", "sequence (Q04771 21-123, one chain of several)": "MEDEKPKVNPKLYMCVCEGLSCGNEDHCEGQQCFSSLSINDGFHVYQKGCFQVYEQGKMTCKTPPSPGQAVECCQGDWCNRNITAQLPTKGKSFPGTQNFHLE", "assay": "SPR"}, "cryo-EM structure": {"target": "the molecule itself", "assay": "cryo-EM structure"}, "[4]": {"target": "B1", "assay": "cryo-EM structure"}, "[5]": {"target": "B1", "assay": "SPR"}},
  "data": [
    {"molecule": "BMP6, mammalian expressed (glycosylated), recombinant human (from UniProt P22004 375-513) (ligand)", "values": [
      {"measurement": "Kd", "setting": "[1]", "value": 282, "unit": "pM"}
    ]},
    {"molecule": "B1", "values": [
      {"measurement": "Kd", "setting": "[2]", "value": 51.7, "unit": "pM"},
      {"measurement": "Kd", "setting": "[3]", "value": 36, "unit": "pM"},
      {"measurement": "binding result", "setting": "cryo-EM structure", "value": "binds"}
    ]},
    {"molecule": "B2", "values": [
      {"measurement": "binding result", "setting": "[4]", "value": "binds"}
    ]},
    {"molecule": "B3", "values": [
      {"measurement": "binding result", "setting": "[5]", "value": "binds"}
    ]},
    {"molecule": "B4", "values": [
      {"measurement": "Kd", "setting": "[5]", "value": 124, "unit": "pM"}
    ]},
    {"molecule": "B5", "values": [
      {"measurement": "Kd", "setting": "[2]", "value": 71.4, "unit": "pM"},
      {"measurement": "Kd", "setting": "[3]", "value": 164, "unit": "pM"}
    ]}
  ]
}
